Assay [1] concerns the target T1, single chain CD3εγ heterodimer (UniProt P07766 23-118; P09693 23-103).
T1 chain: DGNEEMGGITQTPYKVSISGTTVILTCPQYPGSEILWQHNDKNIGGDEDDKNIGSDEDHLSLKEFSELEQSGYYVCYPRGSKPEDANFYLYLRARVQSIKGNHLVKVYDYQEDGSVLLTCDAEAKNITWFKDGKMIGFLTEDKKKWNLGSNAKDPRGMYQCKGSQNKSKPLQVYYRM
Nature of the assay: Biacore. (In general: SPR reads the build-up and loss of mass on a sensor chip optically.)

Assay [2] has as its target T1, single chain CD3εγ heterodimer. Nature of the assay: Biacore.

Residue numbers refer to the chain shown, from its start. Read-outs that look alike come from different tables or passages of the source.

B1: Unmasked v4 TDB (bispecific antibody, V domains shown)
VH 1: EVQLVQSGAEVKKPGASVKVSCKASGFTFTSYYIHWVRQAPGQGLEWIGWIYPENDNTKYNEKFKDRVTITADTSTSTAYLELSSLRSEDTAVYYCARDGYSRYYFDYWGQGTLVTVSS
VL 1: DIVMTQSPDSLAVSLGERATINCKSSQSLLNSRTRKNYLAWYQQKPGQSPKLLIYWTSTRKSGVPDRFSGSGSGTDFTLTISSLQAEDVAVYYCKASFILRTFGQGTKVEIK
VH 2: EVQLVESGGGLVQPGGSLRLSCAASGYTFTSYNMHWVRQAPGKGLEWVGAIYPGNGDTSYNQKFKGRFTISVDKSKNTLYLQMNSLRAEDTAVYYCARVVYYSNSYWYFDVWGQGTLVTVSS
VL 2: DIQMTQSPSSLSASVGDRVTITCRASSSVSYMHWYQQKPGKAPKPLIYAPSNLASGVPSRFSGSGSGTDFTLTISSLQPEDFATYYCQQWSFNPPTFGQGTKVEIK
For B1, the Kd in assay [1] and in assay [2] was 119 nM throughout.

B2: Unmasked v1 TDB (bispecific antibody, V domains shown)
VH 1: B1 VH 1
VL 1: B1 VL 1 with A96Q
VH 2: B1 VH 2
VL 2: B1 VL 2
Take B2: the Kd in assay [1] and in assay [2] was 1.2 nM each time.

B3: Unmasked v5 TDB (bispecific antibody, V domains shown)
VH 1: B1 VH 1
VL 1: B1 VL 1 with A96Q, F98A
VH 2: B1 VH 2
VL 2: B1 VL 2
Turning to B3, the Kd in assay [1] and in assay [2] was 18 nM throughout.

B4: Unmasked v3 TDB (bispecific antibody, V domains shown)
VH 1: B1 VH 1
VL 1: B1 VL 1 with A96Q, I99A
VH 2: B1 VH 2
VL 2: B1 VL 2
For the molecule B4, the Kd in assay [1] and in assay [2] was 3.5 nM each time.

What is called Kd is the concentration at which binding is half-saturated. Low values mean higher affinity, high ones lower affinity.

The values above are taken from US20180057593A1 (published 2018).
